Target: human BCMA-Fc (R&D system, 193-BC-050) (human) (UniProt Q02223)
Experiment: competition ELISA on coated human BCMA-Fc; antibody titrated and mixed with 200 ng/ml BAFF, bound BAFF detected, absorbance 450 nm

human BCMA-Fc (R&D system, 193-BC-050) (human), sequence (Q02223 1-54 limits assumed): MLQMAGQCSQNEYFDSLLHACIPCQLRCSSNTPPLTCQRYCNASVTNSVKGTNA

B1: J6MO (antibody, INN chains, looked up, V domains shown)
VH: QVQLVQSGAEVKKPGSSVKVSCKASGGTFSNYWMHWVRQAPGQGLEWMGATYRGHSDTYYNQKFKGRVTITADKSTSTAYMELSSLRSEDTAVYYCARGAIYDGYDVLDNWGQGTLVTVSS
VL: DIQMTQSPSSLSASVGDRVTITCSASQDISNYLNWYQQKPGKAPKLLIYYTSNLHSGVPSRFSGSGSGTDFTLTISSLQPEDFATYYCQQYRKLPWTFGQGTKLEIK
Question: With B1 as the binder, how does the IC50 (read off the curve) read?
Answer: The IC50 (read off the curve) was 4 nM.

— patent US20210284749A1
